Results: paper PMC3591269

Molecular target: MINI3 (WRKY10) (Arabidopsis) (UniProt Q9LG05)
Assay: competition
Conditions: 25 mM Hepes-KOH pH 7.2, 40 mM KCl, 1 mM DTT, 1 mM EDTA, 10% glycerol, 0.01 uM ZnCl2, 2 ug poly-dIdC, 3 ng probe, 1 ug protein in 20 ul; room temperature …

MINI3 (WRKY10) (Arabidopsis), sequence (Q9LG05 whole entry): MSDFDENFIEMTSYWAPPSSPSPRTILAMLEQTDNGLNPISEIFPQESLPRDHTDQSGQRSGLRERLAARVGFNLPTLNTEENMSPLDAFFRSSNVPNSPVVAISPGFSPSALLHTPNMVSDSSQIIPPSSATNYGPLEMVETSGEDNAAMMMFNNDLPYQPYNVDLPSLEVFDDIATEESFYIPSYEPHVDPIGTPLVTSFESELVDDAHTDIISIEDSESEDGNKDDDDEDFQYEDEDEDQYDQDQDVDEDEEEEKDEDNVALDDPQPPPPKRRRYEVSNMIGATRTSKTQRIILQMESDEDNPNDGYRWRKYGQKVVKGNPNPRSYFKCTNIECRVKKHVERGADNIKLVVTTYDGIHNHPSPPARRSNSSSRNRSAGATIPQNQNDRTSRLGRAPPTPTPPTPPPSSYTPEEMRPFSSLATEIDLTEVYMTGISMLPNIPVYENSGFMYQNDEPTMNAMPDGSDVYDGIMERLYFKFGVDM

Sequence | binding
GACATTACTGTCATCGTATATGAAACATTATTCTAATAATTGTTATAAAAATACCGGAGTTAAACTAGATTGATTATCACCGAGATTTTATATTTGTCAAGATATATAGATGGTCCATCGAAAGGATTGGTGCTTCCAAAACCTTCGATGTCACCTCCTGA (double strand) [W3-box fragment (MINI3 promoter)] | binds
GACATTACTGTCATCGTATATGAAACATTATTCTAATAATTGTTATAAAAATACCGGAGTTAAACTAGATTGATTATCACCGAGATTTTATATTTGTCTAGATATATAGATGGTCCATCGAAAGGATTGGTGCTTCCAAAACCTTCGATGTCACCTCCTGA (double strand) [mW3-box fragment] | binds
